Earlier results on one substance are cited in PMC3736882.

Some results are limits rather than exact numbers.

This data set deals with Factor VIII (Homo sapiens) (UniProt P00451).
UniProt P00451, sequence (P00451 760-1332): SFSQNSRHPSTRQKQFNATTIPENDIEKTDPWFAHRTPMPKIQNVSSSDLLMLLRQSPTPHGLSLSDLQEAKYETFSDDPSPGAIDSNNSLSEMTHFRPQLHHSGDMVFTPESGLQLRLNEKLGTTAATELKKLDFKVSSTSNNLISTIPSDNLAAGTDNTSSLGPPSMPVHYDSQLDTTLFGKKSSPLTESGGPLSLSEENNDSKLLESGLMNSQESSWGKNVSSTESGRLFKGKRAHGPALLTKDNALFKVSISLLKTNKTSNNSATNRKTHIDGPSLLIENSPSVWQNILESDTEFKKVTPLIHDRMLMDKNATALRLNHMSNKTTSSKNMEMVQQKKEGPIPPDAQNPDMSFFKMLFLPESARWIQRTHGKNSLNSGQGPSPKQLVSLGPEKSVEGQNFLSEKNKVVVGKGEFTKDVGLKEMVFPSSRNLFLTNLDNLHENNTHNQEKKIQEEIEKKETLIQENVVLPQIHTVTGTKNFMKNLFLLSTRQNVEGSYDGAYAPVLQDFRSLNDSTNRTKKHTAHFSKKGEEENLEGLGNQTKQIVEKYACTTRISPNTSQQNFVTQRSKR

The Kd is a measure of binding affinity in units of concentration. Take “von Willebrand factor (from UniProt P04275)”: the Kd was < 1 nM.
